Positions count from the first letter of the chain named. One block for each binder: values may come before it.
Legend:
[1] = target: T1, TLT-1 18-188 relipidated in 20:80 PS:PC vesicles (human, UniProt Q86YW5 18-188); test: cell-based or functional assay
T1 sequence: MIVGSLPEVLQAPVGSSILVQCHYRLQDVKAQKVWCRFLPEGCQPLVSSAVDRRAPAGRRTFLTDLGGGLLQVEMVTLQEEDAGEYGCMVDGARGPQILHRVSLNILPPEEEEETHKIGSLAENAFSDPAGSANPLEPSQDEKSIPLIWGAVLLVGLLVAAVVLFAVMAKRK

[2] = target: T2, TLT-1 receptor on the surface of activated human platelets (human, UniProt Q86YW5 16-311); test: cell-based or functional assay
T2 sequence: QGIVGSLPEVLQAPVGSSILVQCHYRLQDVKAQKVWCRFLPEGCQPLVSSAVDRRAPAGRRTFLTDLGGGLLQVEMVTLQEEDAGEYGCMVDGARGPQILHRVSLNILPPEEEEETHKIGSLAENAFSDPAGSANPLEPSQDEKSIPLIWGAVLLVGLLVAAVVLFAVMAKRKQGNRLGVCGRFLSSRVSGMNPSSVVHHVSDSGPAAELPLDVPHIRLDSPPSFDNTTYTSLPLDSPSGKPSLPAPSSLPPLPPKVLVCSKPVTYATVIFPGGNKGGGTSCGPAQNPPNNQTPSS

B2: Fab 0012-LC-L0-hTF.1-219; VH-CH1-HPC4 (other)
light: DVVMTQTPLSLPVSLGDQASISCRSSQSLVHRNGNTYFHWCLQKPGQSPKLLIYKVSNRFSGVPDRFSGSGSGTDFTLKISRVEAEDLGVYFCSQSTHVPYTFGGGTKLEIKRTVAAPSVFIFPPSDEQLKSGTASVVCLLNNFYPREAKVQWKVDNALQSGNSQESVTEQDSKDSTYSLSSTLTLSKADYEKHKVYACEVTHQGLSSPVTKSFNRGECSGTTNTVAAYNLTWKSTNFKTILEWEPKPVNQVYTVQISTKSGDWKSKCFYTTDTECDLTDEIVKDVKQTYLARVFSYPAGNVESTGSAGEPLYENSPEFTPYLETNLGQPTIQSFEQVGTKVNVTVEDERTLVRRNNTFLSLRDVFGKDLIYTLYYWKSSSSGKKTAKTNTNEFLIDVDKGENYCFSVQAVIPSRTVNRKSTDSPVECMGQEKGEFRE
heavy: EVKLLESGGGLVQPGGSLKLSCAASGFDFSRYWMTWVRQAPGKGLEWIGEINPDSSTINYTPSLKDKFIISRDNAKNTLYLQMSEVRSEDTALYYCASGVFTSWGQGTLVTVSAASTKGPSVFPLAPCSRSTSESTAALGCLVKDYFPEPVTVSWNSGALTSGVHTFPAVLQSSGLYSLSSVVTVPSSSLGTKTYTCNVDHKPSNTKVDKRVESKEDQVDPRLIDGK
FVII-mediated FXa generation % Activity lipidated TLT-1 [1]: 90% | FVIIa-mediated FXa generation % Activity lipidated TLT-1 [1]: 98% | FVIIa-mediated FXa generation % Activity activated plts (n 1) [2]: 132%

B3: Fab 0012-VH-CH1-L4a-hTF.1-219; LC-HPC4 (other)
heavy: EVKLLESGGGLVQPGGSLKLSCAASGFDFSRYWMTWVRQAPGKGLEWIGEINPDSSTINYTPSLKDKFIISRDNAKNTLYLQMSEVRSEDTALYYCASGVFTSWGQGTLVTVSAASTKGPSVFPLAPCSRSTSESTAALGCLVKDYFPEPVTVSWNSGALTSGVHTFPAVLQSSGLYSLSSVVTVPSSSLGTKTYTCNVDHKPSNTKVDKRVESKGSGGGGSGGGGSGGGGSSGTTNTVAAYNLTWKSTNFKTILEWEPKPVNQVYTVQISTKSGDWKSKCFYTTDTECDLTDEIVKDVKQTYLARVFSYPAGNVESTGSAGEPLYENSPEFTPYLETNLGQPTIQSFEQVGTKVNVTVEDERTLVRRNNTFLSLRDVFGKDLIYTLYYWKSSSSGKKTAKTNTNEFLIDVDKGENYCFSVQAVIPSRTVNRKSTDSPVECMGQEKGEFRE
light: DVVMTQTPLSLPVSLGDQASISCRSSQSLVHRNGNTYFHWCLQKPGQSPKLLIYKVSNRFSGVPDRFSGSGSGTDFTLKISRVEAEDLGVYFCSQSTHVPYTFGGGTKLEIKRTVAAPSVFIFPPSDEQLKSGTASVVCLLNNFYPREAKVQWKVDNALQSGNSQESVTEQDSKDSTYSLSSTLTLSKADYEKHKVYACEVTHQGLSSPVTKSFNRGECEDQVDPRLIDGK
FVII-mediated FXa generation % Activity lipidated TLT-1 [1]: 60% | FVIIa-mediated FXa generation % Activity lipidated TLT-1 [1]: 72%

B6: Fab 0023-LC-L3-TF;VH-CH1-HPC4 (other)
light chain-linker-TF: DIVVSQSPSSLAVSAGEKVTMSCKSSQSLLNSRTRKNYLAWYQQKPGQSPKLLIYWASTRESGVPDRFTGSGSGTDFTLTISSVQAEDLAVYYCKQSYNLLTFGAGTKLELKRTVAAPSVFIFPPSDEQLKSGTASVVCLLNNFYPREAKVQWKVDNALQSGNSQESVTEQDSKDSTYSLSSTLTLSKADYEKHKVYACEVTHQGLSSPVTKSFNRGECGSGGGGSGGGGSSGTTNTVAAYNLTWKSTNFKTILEWEPKPVNQVYTVQISTKSGDWKSKCFYTTDTECDLTDEIVKDVKQTYLARVFSYPAGNVESTGSAGEPLYENSPEFTPYLETNLGQPTIQSFEQVGTKVNVTVEDERTLVRRNNTFLSLRDVFGKDLIYTLYYWKSSSSGKKTAKTNTNEFLIDVDKGENYCFSVQAVIPSRTVNRKSTDSPVECMGQEKGEFRE
VH-CH1-HPC4: EVRLVESGGGLVQPGGSLKLSCATSGFTFSDYFMYWIRQTPEKRLEWVAYISNGGDSSSYPDTVKGRFTISRDNAKNTLYLQMSRLKSEDTAMYYCATNKNWDDYYDMDYWGQGTSVTVSSASTKGPSVFPLAPCSRSTSESTAALGCLVKDYFPEPVTVSWNSGALTSGVHTFPAVLQSSGLYSLSSVVTVPSSSLGTKTYTCNVDHKPSNTKVDKRVESKEDQVDPRLIDGK
FVII-mediated FXa generation % Activity lipidated TLT-1 [1]: 26% | FVIIa-mediated FXa generation % Activity lipidated TLT-1 [1]: 42% | FVII-mediated FXa generation % Activity activated plts (n 1) [2]: 20% | FVIIa-mediated FXa generation % Activity activated plts (n 1) [2]: 43%

B7: Fab 0023-LC-L6-TF;VH-CH1-HPC4 (other)
light chain-linker-TF: DIVVSQSPSSLAVSAGEKVTMSCKSSQSLLNSRTRKNYLAWYQQKPGQSPKLLIYWASTRESGVPDRFTGSGSGTDFTLTISSVQAEDLAVYYCKQSYNLLTFGAGTKLELKRTVAAPSVFIFPPSDEQLKSGTASVVCLLNNFYPREAKVQWKVDNALQSGNSQESVTEQDSKDSTYSLSSTLTLSKADYEKHKVYACEVTHQGLSSPVTKSFNRGECGGGGSGGGGSGSGGGGSGGGGSGGGGSSGTTNTVAAYNLTWKSTNFKTILEWEPKPVNQVYTVQISTKSGDWKSKCFYTTDTECDLTDEIVKDVKQTYLARVFSYPAGNVESTGSAGEPLYENSPEFTPYLETNLGQPTIQSFEQVGTKVNVTVEDERTLVRRNNTFLSLRDVFGKDLIYTLYYWKSSSSGKKTAKTNTNEFLIDVDKGENYCFSVQAVIPSRTVNRKSTDSPVECMGQEKGEFRE
VH-CH1-HPC4: B6 VH-CH1-HPC4
FVII-mediated FXa generation % Activity lipidated TLT-1 [1]: 27% | FVIIa-mediated FXa generation % Activity lipidated TLT-1 [1]: 44% | FVII-mediated FXa generation % Activity activated plts (n 1) [2]: 20% | FVIIa-mediated FXa generation % Activity activated plts (n 1) [2]: 45%

B8: Fab 0023-LC-L4a-TF;VH-CH1-HPC4 (other)
light chain-linker-TF: DIVVSQSPSSLAVSAGEKVTMSCKSSQSLLNSRTRKNYLAWYQQKPGQSPKLLIYWASTRESGVPDRFTGSGSGTDFTLTISSVQAEDLAVYYCKQSYNLLTFGAGTKLELKRTVAAPSVFIFPPSDEQLKSGTASVVCLLNNFYPREAKVQWKVDNALQSGNSQESVTEQDSKDSTYSLSSTLTLSKADYEKHKVYACEVTHQGLSSPVTKSFNRGECGSGGGGSGGGGSGGGGSSGTTNTVAAYNLTWKSTNFKTILEWEPKPVNQVYTVQISTKSGDWKSKCFYTTDTECDLTDEIVKDVKQTYLARVFSYPAGNVESTGSAGEPLYENSPEFTPYLETNLGQPTIQSFEQVGTKVNVTVEDERTLVRRNNTFLSLRDVFGKDLIYTLYYWKSSSSGKKTAKTNTNEFLIDVDKGENYCFSVQAVIPSRTVNRKSTDSPVECMGQEKGEFRE
VH-CH1-HPC4: B6 VH-CH1-HPC4
FVII-mediated FXa generation % Activity lipidated TLT-1 [1]: 24% | FVIIa-mediated FXa generation % Activity lipidated TLT-1 [1]: 40% | FVII-mediated FXa generation % Activity activated plts (n 1) [2]: 21% | FVIIa-mediated FXa generation % Activity activated plts (n 1) [2]: 21%

Further lines, results first:

FVII-mediated FXa generation % Activity lipidated TLT-1 [1]: 22% | FVIIa-mediated FXa generation % Activity lipidated TLT-1 [1]: 43%
B1: Fab 0051-LC-L4a-TF;VH-CH1-HPC4 (other)
light chain-linker-TF: SIVMTQTPKFLLVSAGDRVTITCKASQSVSNDVAWYQQKPGQSPKLLINYASSRYTGIPDRFTGSGYGTDFTFTISTVQAEDLAVYFCQQDYSSPYTFGGGTKLEIERTVAAPSVFIFPPSDEQLKSGTASVVCLLNNFYPREAKVQWKVDNALQSGNSQESVTEQDSKDSTYSLSSTLTLSKADYEKHKVYACEVTHQGLSSPVTKSFNRGECGSGGGGSGGGGSGGGGSSGTTNTVAAYNLTWKSTNFKTILEWEPKPVNQVYTVQISTKSGDWKSKCFYTTDTECDLTDEIVKDVKQTYLARVFSYPAGNVESTGSAGEPLYENSPEFTPYLETNLGQPTIQSFEQVGTKVNVTVEDERTLVRRNNTFLSLRDVFGKDLIYTLYYWKSSSSGKKTAKTNTNEFLIDVDKGENYCFSVQAVIPSRTVNRKSTDSPVECMGQEKGEFRE
VH-CH1-HPC4: QVQLEQSGAELVRPGVSVKISCKGSGYTFTDYSMHWVKQSHAKSLEWIGVISTYYGDVRYNQKFKGKATMTVDKSSSTAYMALARLTSEDSAIYYCARAPMITTGAWFAYWGQGTLVTVSAASTKGPSVFPLAPCSRSTSESTAALGCLVKDYFPEPVTVSWNSGALTSGVHTFPAVLQSSGLYSLSSVVTVPSSSLGTKTYTCNVDHKPSNTKVDKRVESKEDQVDPRLIDGK

FVII-mediated FXa generation % Activity lipidated TLT-1 [1]: 103% | FVIIa-mediated FXa generation % Activity lipidated TLT-1 [1]: 103% | FVII-mediated FXa generation % Activity activated plts (n 1) [2]: 40% | FVIIa-mediated FXa generation % Activity activated plts (n 1) [2]: 57%
B4: Fab 0082-VH-CH1-L10-TF;LC-HPC4 (other)
VH-CH1-linker-TF: EVKLLESGGGLVQPGGSLKLSCAASGFDFSRYWMTWVRQAPGKGLEWIGEINPDSSTINYAPSLKDKFIISRDNAKNTLYLQMSEVRSEDTALYYCASGVFTSWGQGTLVTVSAASTKGPSVFPLAPCSRSTSESTAALGCLVKDYFPEPVTVSWNSGALTSGVHTFPAVLQSSGLYSLSSVVTVPSSSLGTKTYTCNVDHKPSNTKVDKRVESKYGPPSPSSPAPEFLGGSGTTNTVAAYNLTWKSTNFKTILEWEPKPVNQVYTVQISTKSGDWKSKCFYTTDTECDLTDEIVKDVKQTYLARVFSYPAGNVESTGSAGEPLYENSPEFTPYLETNLGQPTIQSFEQVGTKVNVTVEDERTLVRRNNTFLSLRDVFGKDLIYTLYYWKSSSSGKKTAKTNTNEFLIDVDKGENYCFSVQAVIPSRTVNRKSTDSPVECMGQEKGEFRE
light chain-HPC4: B3 light with C41A

FVII-mediated FXa generation % Activity lipidated TLT-1 [1]: 101% | FVIIa-mediated FXa generation % Activity lipidated TLT-1 [1]: 101% | FVII-mediated FXa generation % Activity activated plts (n 1) [2]: 39% | FVIIa-mediated FXa generation % Activity activated plts (n 1) [2]: 62%
B5: Fab 0061-VH-CH1-L10-TF;LC-HPC4 (other)
VH-CH1-linker-TF: B4 VH-CH1-linker-TF with A61N
light chain-HPC4: B3 light with C41A
